Assay results reported in patent publication US20250320292A1 (PANDION OPERATIONS, published 2025).
Blank lines part the entries; values can stand above or below the binder they belong to.

What was measured:
recROBO2 = assay: cell-based or functional assay
Mouse Robo2 [1] = target: T1, Mouse Robo2 (mouse, UniProt Q7TPD3 22-863, limits assumed); assay: BLI (Octet RED96); CDAB1 captured on anti-human Fc biosensor, mouse Robo2 titrated two-fold from 50 nM
T1 construct: also called mRobo2
T1 sequence: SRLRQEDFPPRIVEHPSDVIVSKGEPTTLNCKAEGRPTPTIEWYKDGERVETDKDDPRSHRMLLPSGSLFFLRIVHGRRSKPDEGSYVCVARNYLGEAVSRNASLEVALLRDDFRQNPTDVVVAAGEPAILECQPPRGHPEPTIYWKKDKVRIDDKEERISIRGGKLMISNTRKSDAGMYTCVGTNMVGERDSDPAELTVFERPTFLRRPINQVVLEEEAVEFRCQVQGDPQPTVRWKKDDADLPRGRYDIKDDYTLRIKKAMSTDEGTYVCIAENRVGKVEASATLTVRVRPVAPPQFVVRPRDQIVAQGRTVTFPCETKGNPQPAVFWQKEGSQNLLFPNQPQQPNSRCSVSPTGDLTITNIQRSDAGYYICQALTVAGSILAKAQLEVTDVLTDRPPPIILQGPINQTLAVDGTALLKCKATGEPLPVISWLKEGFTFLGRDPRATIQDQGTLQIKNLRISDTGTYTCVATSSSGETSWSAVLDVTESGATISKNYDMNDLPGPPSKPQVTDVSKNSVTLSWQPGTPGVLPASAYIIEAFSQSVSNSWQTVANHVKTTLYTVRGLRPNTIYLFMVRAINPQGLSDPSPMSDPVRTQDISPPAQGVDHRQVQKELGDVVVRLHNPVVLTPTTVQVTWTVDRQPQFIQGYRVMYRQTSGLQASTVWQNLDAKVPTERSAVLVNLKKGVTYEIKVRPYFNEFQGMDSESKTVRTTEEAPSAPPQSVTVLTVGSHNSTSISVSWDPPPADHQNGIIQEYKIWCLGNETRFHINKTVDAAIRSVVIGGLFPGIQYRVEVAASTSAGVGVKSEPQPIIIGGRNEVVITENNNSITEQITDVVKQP
Procedure: (§1) Anti-human Fc (for CDAB1, CDAB5, Fc-rat COL4A3) or anti-Streptavidin (for CDAB3) or HIS1K (COL4A3-His) biosensors were equilibrated in assay buffer (1% BSA in 1×PBS with 0.05% Tween-20) for 10 minutes before the experiment was setup. Immobilizing reagents were diluted to 4 μg/mL in assay buffer and 200 μL pipetted to 96 well plate. Mouse Robo2 or TAs were titrated down, two-fold dilutions (starting at 50 nM as the highest concentration, 7-point dilution). The experiment was conducted using data acquisition software version 10.0 for OCTET96 RED. Test articles were captured using anti-human Fc biosensors for 180 s. Biosensors loaded with test articles were then equilibrated in assay buffer for 120 s. Association was performed in wells with mRobo2 or TA for 180 seconds. Dissociation was performed in wells with assay buffer for 180 s.

Mouse Robo2 [2] = target: T1, Mouse Robo2; assay: BLI (Octet RED96); test article captured on biosensor (method names CDAB5 on anti-human Fc, result names CDAB6), mouse Robo2 titrated from 50 nM
Procedure: as §1

Mouse Robo2 [3] = target: T1, Mouse Robo2; assay: BLI (Octet RED96); CDAB3 on anti-Streptavidin biosensor, mouse Robo2 titrated two-fold from 50 nM
Procedure: as §1

Chain of recROBO2 (Q9HCK4 whole entry): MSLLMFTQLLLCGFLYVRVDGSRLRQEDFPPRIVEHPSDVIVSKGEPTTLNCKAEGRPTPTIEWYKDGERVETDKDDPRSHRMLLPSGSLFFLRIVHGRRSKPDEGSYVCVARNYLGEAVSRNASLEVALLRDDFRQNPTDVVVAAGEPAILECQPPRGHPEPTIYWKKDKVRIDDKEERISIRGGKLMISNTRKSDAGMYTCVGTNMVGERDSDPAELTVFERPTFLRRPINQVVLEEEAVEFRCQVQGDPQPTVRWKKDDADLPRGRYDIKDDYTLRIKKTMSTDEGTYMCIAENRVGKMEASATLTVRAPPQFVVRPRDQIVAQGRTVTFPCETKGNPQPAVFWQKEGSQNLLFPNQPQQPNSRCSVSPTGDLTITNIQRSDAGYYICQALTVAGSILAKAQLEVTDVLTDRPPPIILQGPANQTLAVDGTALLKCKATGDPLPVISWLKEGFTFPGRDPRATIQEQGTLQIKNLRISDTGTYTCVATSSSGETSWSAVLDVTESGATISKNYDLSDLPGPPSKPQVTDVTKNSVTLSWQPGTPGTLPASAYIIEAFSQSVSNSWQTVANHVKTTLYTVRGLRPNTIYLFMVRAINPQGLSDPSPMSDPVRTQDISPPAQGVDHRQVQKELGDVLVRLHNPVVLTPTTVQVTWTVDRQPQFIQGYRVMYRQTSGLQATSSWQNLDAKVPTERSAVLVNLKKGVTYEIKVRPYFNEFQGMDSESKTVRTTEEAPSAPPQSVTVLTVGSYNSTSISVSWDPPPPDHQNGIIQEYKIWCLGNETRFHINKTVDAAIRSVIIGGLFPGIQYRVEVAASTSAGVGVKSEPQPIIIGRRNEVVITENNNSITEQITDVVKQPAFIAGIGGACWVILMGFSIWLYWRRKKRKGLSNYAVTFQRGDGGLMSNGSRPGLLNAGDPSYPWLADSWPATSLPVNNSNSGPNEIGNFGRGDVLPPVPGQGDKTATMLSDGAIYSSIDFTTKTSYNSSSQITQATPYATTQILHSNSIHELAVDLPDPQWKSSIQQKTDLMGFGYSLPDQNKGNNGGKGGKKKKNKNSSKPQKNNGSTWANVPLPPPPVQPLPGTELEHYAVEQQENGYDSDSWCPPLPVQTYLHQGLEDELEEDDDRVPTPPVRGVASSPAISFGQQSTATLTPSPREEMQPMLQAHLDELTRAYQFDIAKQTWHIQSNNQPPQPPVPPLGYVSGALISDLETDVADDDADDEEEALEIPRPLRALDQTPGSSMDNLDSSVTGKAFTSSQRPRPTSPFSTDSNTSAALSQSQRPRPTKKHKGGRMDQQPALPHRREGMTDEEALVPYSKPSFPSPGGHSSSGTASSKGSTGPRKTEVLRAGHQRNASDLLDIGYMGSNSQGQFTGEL

tethered IC50(nM), inhibition of C5b-9a deposition (Hycult classical complement mouse assay, tethered format) (recROBO2): 1.5 nM | Kd (Mouse Robo2 [1]): 1.38 nM | koff (Mouse Robo2 [1]): 0.00129 s⁻¹ | kon (Mouse Robo2 [1]): 938000 M⁻¹ s⁻¹
B1: CDAB1 (antibody, human IgG1, kappa)
heavy: EVQLVQSGAEVKKPGASVKVSCKASGYTFTGYYMHWVRQAPGQGLEWMGWINPKNGDTEFPQKFQGRVTMTRDTSITTAYMDLSRLRSDDTAVYYCARESGDDAFDIWGQGTMVTVSSASTKGPSVFPLAPSSKSTSGGTAALGCLVKDYFPEPVTVSWNSGALTSGVHTFPAVLQSSGLYSLSSVVTVPSSSLGTQTYICNVNHKPSNTKVDKKVEPKSCDKTHTCPPCPAPEAAGAPSVFLFPPKPKDTLMISRTPEVTCVVVDVSHEDPEVKFNWYVDGVEVHNAKTKPREEQYNSTYRVVSVLTVLHQDWLNGKEYKCKVSNKALPAPIEKTISKAKGQPREPQVYTLPPSREEMTKNQVSLTCLVKGFYPSDIAVEWESNGQPENNYKTTPPVLDSDGSFFLYSKLTVDKSRWQQGNVFSCSVMHEALHNHYTQKSLSLSPGGGGGSDCGPPPDIPNARPILGRHSKFAEQSKVAYSCNNGFKQVPDKSNIVVCLENGQWSSHETFCEKSCVAPERLSFASLKKEYLNMNFFPVGTIVEYECRPGFRKQPPLPGKATCLEDLVWSPVAQFCKKKSCPNPKDLDNGHINIPTGILFGSEINFSCNPGYRLVGVSSTFCSVTGNTVDWDDEFPVCTEIHCPEPPKINNGIMRGESDSYTYSQVVTYSCDKGFILVGNASIYCTVSKSDVGQWSSPPPRCIEKSKVPTKKPTINVPSTGTPSTPQKPTTESVPNPGDQPTPQKPSTVKVSATQHVPVTKTTVRHPIRTSTDKGEPNTG
light: DIVMTQSPSSLSASVGDRVTITCRASQSISSYLNWYQQKPGKAPKLLIYAASSLQSGVPSRFSGSGSGTDFTLTISSLQPEDFATYYCQQSVGLFFGGGTKVEIKRTVAAPSVFIFPPSDEQLKSGTASVVCLLNNFYPREAKVQWKVDNALQSGNSQESVTEQDSKDSTYSLSSTLTLSKADYEKHKVYACEVTHQGLSSPVTKSFNRGEC
notes: Anti-ROBO2 tether in IgG1 format with mouse CD55 ECD fused to the C-terminus of the heavy chain; also called CDAB1-HC; CDAB1-LC

Kd (Mouse Robo2 [2]): 7.13 nM | koff (Mouse Robo2 [2]): 0.00294 s⁻¹ | kon (Mouse Robo2 [2]): 412000 M⁻¹ s⁻¹
B2: CDAB6 (Fc fusion)
chain: DCGPPPDIPNARPILGRHSKFAEQSKVAYSCNNGFKQVPDKSNIVVCLENGQWSSHETFCEKSCVAPERLSFASLKKEYLNMNFFPVGTIVEYECRPGFRKQPPLPGKATCLEDLVWSPVAQFCKKKSCPNPKDLDNGHINIPTGILFGSEINFSCNPGYRLVGVSSTFCSVTGNTVDWDDEFPVCTEIHCPEPPKINNGIMRGESDSYTYSQVVTYSCDKGFILVGNASIYCTVSKSDVGQWSSPPPRCIEKSKVPTKKPTINVPSTGTPSTPQKPTTESVPNPGDQPTPQKPSTVKVSATQHVPVTKTTVRHPIRTSTDKGEPNTGGGGGSGGGGSGGGGSGGGGSDKTHTCPPCPAPEAAGAPSVFLFPPKPKDTLMISRTPEVTCVVVDVSHEDPEVKFNWYVDGVEVHNAKTKPREEQYNSTYRVVSVLTVLHQDWLNGKEYKCKVSNKALPAPIEKTISKAKGQPREPQVYTLPPSREEMTKNQVSLTCLVKGFYPSDIAVEWESNGQPENNYKTTPPVLDSDGSFFLYSKLTVDKSRWQQGNVFSCSVMHEALHNHYTQKSLSLSPGGGGGSGGGGSGGGGSGGGGSEVQLVQSGAEVKKPGASVKVSCKASGYTFTGYYMHWVRQAPGQGLEWMGWINPKNGDTEFPQKFQGRVTMTRDTSITTAYMDLSRLRSDDTAVYYCARESGDDAFDIWGQGTMVTVSSGGGGGSGGGGSGGGGSDIVMTQSPSSLSASVGDRVTITCRASQSISSYLNWYQQKPGKAPKLLIYAASSLQSGVPSRFSGSGSGTDFTLTISSLQPEDFATYYCQQSVGLFFGGGTKVEIK
notes: Same V domains as CDAB1

Kd (Mouse Robo2 [3]): 13.2 nM | koff (Mouse Robo2 [3]): 0.00291 s⁻¹ | kon (Mouse Robo2 [3]): 221000 M⁻¹ s⁻¹
B3: CDAB3 (scFv)
chain: DCGPPPDIPNARPILGRHSKFAEQSKVAYSCNNGFKQVPDKSNIVVCLENGQWSSHETFCEKSCVAPERLSFASLKKEYLNMNFFPVGTIVEYECRPGFRKQPPLPGKATCLEDLVWSPVAQFCKKKSCPNPKDLDNGHINIPTGILFGSEINFSCNPGYRLVGVSSTFCSVTGNTVDWDDEFPVCTEIHCPEPPKINNGIMRGESDSYTYSQVVTYSCDKGFILVGNASIYCTVSKSDVGQWSSPPPRCIEKSKVPTKKPTINVPSTGTPSTPQKPTTESVPNPGDQPTPQKPSTVKVSATQHVPVTKTTVRHPIRTSTDKGEPNTGGGGGSGGGGSGGGGSGGGGSEVQLVQSGAEVKKPGASVKVSCKASGYTFTGYYMHWVRQAPGQGLEWMGWINPKNGDTEFPQKFQGRVTMTRDTSITTAYMDLSRLRSDDTAVYYCARESGDDAFDIWGQGTMVTVSSGGGGGSGGGGSGGGGSDIVMTQSPSSLSASVGDRVTITCRASQSISSYLNWYQQKPGKAPKLLIYAASSLQSGVPSRFSGSGSGTDFTLTISSLQPEDFATYYCQQSVGLFFGGGTKVEIKHHHHHH
notes: Fc-less construct with the same V domains as CDAB1; It was loaded on 'anti-Streptavidin' biosensors, and no biotinylation is described
